The target in this assay is IgG 1C1. Kind of assay: BLI; IgG captured on anti-human biosensors, quenched with Fc; receptor ECD-Fc in solution, three-fold dilutions from 300 nM; PBS, 1% BSA, 0.05% Tween 20; 25°C; 1:1 binding model. A general note: In BLI a coated tip is dipped into the sample, and binding shifts an interference pattern.

A word on the Kd: it is the concentration at which binding is half-saturated. A low value points to higher affinity.

IgG 1C1, sequence (heavy, as listed by the source, chain 1 of 2): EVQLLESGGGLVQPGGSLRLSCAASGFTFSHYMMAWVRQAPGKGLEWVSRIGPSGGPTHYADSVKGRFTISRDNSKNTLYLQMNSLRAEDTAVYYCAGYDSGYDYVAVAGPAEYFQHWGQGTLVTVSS
IgG 1C1, sequence (light, as listed by the source, chain 2 of 2): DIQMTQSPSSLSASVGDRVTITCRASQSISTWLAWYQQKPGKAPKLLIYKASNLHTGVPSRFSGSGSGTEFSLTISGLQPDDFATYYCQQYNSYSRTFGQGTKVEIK

B1: EphA8-Fc (Fc fusion)
chain: ARGEVNLLDTSTIHGDWGWLTYPAHGWDSINEVDESFQPIHTYQVCNVMSPNQNNWLRTSWVPRDGARRVYAEIKFTLRDCNSMPGVLGTCKETFNLYYLESDRDLGASTQESQFLKIDTIAADESFTGADLGVRRLKLNTEVRSVGPLSKRGFYLAFQDIGACLAILSLRIYYKKCPAMVRNLAAFSEAVTGADSSSLVEVRGQCVRHSEERDTPKMYCSAEGEWLVPIGKCVCSAGYEERRDACVACELGFYKSAPGDQLCARCPPHSHSAAPAAQACHCDLSYYRAALDPPSSACTRPPSAPVNLISSVNGTSVTLEWAPPLDPGGRSDITYNAVCRRCPWALSRCEACGSGTRFVPQQTSLVQASLLVANLLAHMNYSFWIEAVNGVSDLSPEPRRAAVVNITTNQAAPSQVVVIRQERAGQTSVSLLWQEPEQPNGIILEYEIKYYEKDKEMQSYSTLKAVTTRATVSGLKPGTRYVFQVRARTSAGCGRFSQAMEVETGKPRPRYDTRT
B1: the Kd is 970 nM.

The record behind these values is PMC12102760.
